Patent publication US20170210799A1 (Janssen / Centocor, published 2017)

Legend:
[1] = molecular target: T1, human ROR1 (Receptor Tyrosine Kinase-Like Orphan Receptor 1) on cells (human, UniProt Q01973 30-937); assay: cell-based or functional assay
[2] = molecular target: T1, human ROR1 (Receptor Tyrosine …); assay: flow cytometry, HCC827 cells

T1 sequence (Q01973 30-937): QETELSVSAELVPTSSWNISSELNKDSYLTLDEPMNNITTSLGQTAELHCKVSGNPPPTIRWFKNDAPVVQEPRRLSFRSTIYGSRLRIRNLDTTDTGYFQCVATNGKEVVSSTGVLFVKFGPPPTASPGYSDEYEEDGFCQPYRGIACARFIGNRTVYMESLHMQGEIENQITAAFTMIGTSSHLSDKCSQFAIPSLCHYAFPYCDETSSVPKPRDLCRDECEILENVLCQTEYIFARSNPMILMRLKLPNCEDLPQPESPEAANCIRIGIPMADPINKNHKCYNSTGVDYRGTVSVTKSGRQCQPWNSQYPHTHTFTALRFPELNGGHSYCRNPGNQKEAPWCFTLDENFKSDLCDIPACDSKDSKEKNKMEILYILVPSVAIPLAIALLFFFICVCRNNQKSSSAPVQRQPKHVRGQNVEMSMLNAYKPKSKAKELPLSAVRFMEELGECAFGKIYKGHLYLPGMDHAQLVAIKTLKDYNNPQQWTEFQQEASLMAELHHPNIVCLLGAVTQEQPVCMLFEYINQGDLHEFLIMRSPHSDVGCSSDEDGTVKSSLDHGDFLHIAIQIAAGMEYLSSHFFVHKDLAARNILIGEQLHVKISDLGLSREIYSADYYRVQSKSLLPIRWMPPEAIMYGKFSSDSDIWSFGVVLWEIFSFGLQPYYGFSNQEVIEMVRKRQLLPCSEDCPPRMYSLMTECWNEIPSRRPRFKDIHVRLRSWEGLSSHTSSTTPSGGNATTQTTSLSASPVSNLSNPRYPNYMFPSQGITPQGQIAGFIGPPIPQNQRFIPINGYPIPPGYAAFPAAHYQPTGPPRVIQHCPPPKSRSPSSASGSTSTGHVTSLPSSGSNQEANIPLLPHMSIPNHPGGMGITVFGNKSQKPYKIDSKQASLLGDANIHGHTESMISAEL

Binder	Killing EC50 [1] [nM]	EC50 [2] [nM]
RCDB4 (bispecific antibody, human IgG4 S228P, kappa, lambda, F234A L235A, DuoBody IgG4 PAA, ROR1 arm + CD3B219 arm; also called RR1B66 × CD3B219) heavy 1: not shown light 1: not shown heavy 2: EVQLVESGGGLVQPGGSLRLSCAASGFTFNTYAMNWVRQAPGKGLEWVARIRSKYNNYATYYAASVKGRFTISRDDSKNSLYLQMNSLKTEDTAVYYCARHGNFGNSYVSWFAYWGQGTLVTVSSASTKGPSVFPLAPCSRSTSESTAALGCLVKDYFPEPVTVSWNSGALTSGVHTFPAVLQSSGLYSLSSVVTVPSSSLGTKTYTCNVDHKPSNTKVDKRVESKYGPPCPPCPAPEAAGGPSVFLFPPKPKDTLMISRTPEVTCVVVDVSQEDPEVQFNWYVDGVEVHNAKTKPREEQFNSTYRVVSVLTVLHQDWLNGKEYKCKVSNKGLPSSIEKTISKAKGQPREPQVYTLPPSQEEMTKNQVSLTCLVKGFYPSDIAVEWESNGQPENNYKTTPPVLDSDGSFLLYSKLTVDKSRWQEGNVFSCSVMHEALHNHYTQKSLSLSLGK light 2: QTVVTQEPSLTVSPGGTVTLTCRSSTGAVTTSNYANWVQQKPGQAPRGLIGGTNKRAPGTPARFSGSLLGGKAALTLSGVQPEDEAEYYCALWYSNLWVFGGGTKLTVLGQPKAAPSVTLFPPSSEELQANKATLVCLISDFYPGAVTVAWKADSSPVKAGVETTTPSKQSNNKYAASSYLSLTPEQWKSHRSYSCQVTHEGSTVEKTVAPTECS	0.677	9.14
RCDB3 (bispecific antibody, human IgG4 S228P, kappa, lambda, F234A L235A, DuoBody IgG4 PAA, ROR1 arm + CD3B219 arm; also called RR1B65 × CD3B219) heavy 1: not shown light 1: not shown heavy 2: EVQLVESGGGLVQPGGSLRLSCAASGFTFNTYAMNWVRQAPGKGLEWVARIRSKYNNYATYYAASVKGRFTISRDDSKNSLYLQMNSLKTEDTAVYYCARHGNFGNSYVSWFAYWGQGTLVTVSSASTKGPSVFPLAPCSRSTSESTAALGCLVKDYFPEPVTVSWNSGALTSGVHTFPAVLQSSGLYSLSSVVTVPSSSLGTKTYTCNVDHKPSNTKVDKRVESKYGPPCPPCPAPEAAGGPSVFLFPPKPKDTLMISRTPEVTCVVVDVSQEDPEVQFNWYVDGVEVHNAKTKPREEQFNSTYRVVSVLTVLHQDWLNGKEYKCKVSNKGLPSSIEKTISKAKGQPREPQVYTLPPSQEEMTKNQVSLTCLVKGFYPSDIAVEWESNGQPENNYKTTPPVLDSDGSFLLYSKLTVDKSRWQEGNVFSCSVMHEALHNHYTQKSLSLSLGK light 2: QTVVTQEPSLTVSPGGTVTLTCRSSTGAVTTSNYANWVQQKPGQAPRGLIGGTNKRAPGTPARFSGSLLGGKAALTLSGVQPEDEAEYYCALWYSNLWVFGGGTKLTVLGQPKAAPSVTLFPPSSEELQANKATLVCLISDFYPGAVTVAWKADSSPVKAGVETTTPSKQSNNKYAASSYLSLTPEQWKSHRSYSCQVTHEGSTVEKTVAPTECS	2.48	3.77
RCDB15 (bispecific antibody, human IgG4 S228P, kappa, lambda, F234A L235A, DuoBody IgG4 PAA, ROR1 arm + CD3B219 arm; also called RR1B83 × CD3B219) heavy 1: not shown light 1: not shown heavy 2: EVQLVESGGGLVQPGGSLRLSCAASGFTFNTYAMNWVRQAPGKGLEWVARIRSKYNNYATYYAASVKGRFTISRDDSKNSLYLQMNSLKTEDTAVYYCARHGNFGNSYVSWFAYWGQGTLVTVSSASTKGPSVFPLAPCSRSTSESTAALGCLVKDYFPEPVTVSWNSGALTSGVHTFPAVLQSSGLYSLSSVVTVPSSSLGTKTYTCNVDHKPSNTKVDKRVESKYGPPCPPCPAPEAAGGPSVFLFPPKPKDTLMISRTPEVTCVVVDVSQEDPEVQFNWYVDGVEVHNAKTKPREEQFNSTYRVVSVLTVLHQDWLNGKEYKCKVSNKGLPSSIEKTISKAKGQPREPQVYTLPPSQEEMTKNQVSLTCLVKGFYPSDIAVEWESNGQPENNYKTTPPVLDSDGSFLLYSKLTVDKSRWQEGNVFSCSVMHEALHNHYTQKSLSLSLGK light 2: QTVVTQEPSLTVSPGGTVTLTCRSSTGAVTTSNYANWVQQKPGQAPRGLIGGTNKRAPGTPARFSGSLLGGKAALTLSGVQPEDEAEYYCALWYSNLWVFGGGTKLTVLGQPKAAPSVTLFPPSSEELQANKATLVCLISDFYPGAVTVAWKADSSPVKAGVETTTPSKQSNNKYAASSYLSLTPEQWKSHRSYSCQVTHEGSTVEKTVAPTECS	1.28	6.34
RCDB18 (bispecific antibody, human IgG4 S228P, kappa, lambda, F234A L235A, DuoBody IgG4 PAA, ROR1 arm + CD3B219 arm; also called RR1B86 × CD3B219) heavy 1: not shown light 1: not shown heavy 2: EVQLVESGGGLVQPGGSLRLSCAASGFTFNTYAMNWVRQAPGKGLEWVARIRSKYNNYATYYAASVKGRFTISRDDSKNSLYLQMNSLKTEDTAVYYCARHGNFGNSYVSWFAYWGQGTLVTVSSASTKGPSVFPLAPCSRSTSESTAALGCLVKDYFPEPVTVSWNSGALTSGVHTFPAVLQSSGLYSLSSVVTVPSSSLGTKTYTCNVDHKPSNTKVDKRVESKYGPPCPPCPAPEAAGGPSVFLFPPKPKDTLMISRTPEVTCVVVDVSQEDPEVQFNWYVDGVEVHNAKTKPREEQFNSTYRVVSVLTVLHQDWLNGKEYKCKVSNKGLPSSIEKTISKAKGQPREPQVYTLPPSQEEMTKNQVSLTCLVKGFYPSDIAVEWESNGQPENNYKTTPPVLDSDGSFLLYSKLTVDKSRWQEGNVFSCSVMHEALHNHYTQKSLSLSLGK light 2: QTVVTQEPSLTVSPGGTVTLTCRSSTGAVTTSNYANWVQQKPGQAPRGLIGGTNKRAPGTPARFSGSLLGGKAALTLSGVQPEDEAEYYCALWYSNLWVFGGGTKLTVLGQPKAAPSVTLFPPSSEELQANKATLVCLISDFYPGAVTVAWKADSSPVKAGVETTTPSKQSNNKYAASSYLSLTPEQWKSHRSYSCQVTHEGSTVEKTVAPTECS		5.07
RCDB8 (bispecific antibody, human IgG4 S228P, kappa, lambda, F234A L235A, DuoBody IgG4 PAA, ROR1 arm + CD3B219 arm; also called RR1B71 × CD3B219) heavy 1: not shown light 1: DIQMTQSPSSLSASVGDRVTITCRASQSIDRHLNWYQQKPGKAPKLLIYKASSLQSGVPSRFSGSGSGTDFTLTISSLQPEDFATYYCQQPHTFPLTFGQGTKVEIKRTVAAPSVFIFPPSDEQLKSGTASVVCLLNNFYPREAKVQWKVDNALQSGNSQESVTEQDSKDSTYSLSSTLTLSKADYEKHKVYACEVTHQGLSSPVTKSFNRGEC heavy 2: EVQLVESGGGLVQPGGSLRLSCAASGFTFNTYAMNWVRQAPGKGLEWVARIRSKYNNYATYYAASVKGRFTISRDDSKNSLYLQMNSLKTEDTAVYYCARHGNFGNSYVSWFAYWGQGTLVTVSSASTKGPSVFPLAPCSRSTSESTAALGCLVKDYFPEPVTVSWNSGALTSGVHTFPAVLQSSGLYSLSSVVTVPSSSLGTKTYTCNVDHKPSNTKVDKRVESKYGPPCPPCPAPEAAGGPSVFLFPPKPKDTLMISRTPEVTCVVVDVSQEDPEVQFNWYVDGVEVHNAKTKPREEQFNSTYRVVSVLTVLHQDWLNGKEYKCKVSNKGLPSSIEKTISKAKGQPREPQVYTLPPSQEEMTKNQVSLTCLVKGFYPSDIAVEWESNGQPENNYKTTPPVLDSDGSFLLYSKLTVDKSRWQEGNVFSCSVMHEALHNHYTQKSLSLSLGK light 2: QTVVTQEPSLTVSPGGTVTLTCRSSTGAVTTSNYANWVQQKPGQAPRGLIGGTNKRAPGTPARFSGSLLGGKAALTLSGVQPEDEAEYYCALWYSNLWVFGGGTKLTVLGQPKAAPSVTLFPPSSEELQANKATLVCLISDFYPGAVTVAWKADSSPVKAGVETTTPSKQSNNKYAASSYLSLTPEQWKSHRSYSCQVTHEGSTVEKTVAPTECS		10.6
RCDB19 (bispecific antibody, human IgG4 S228P, kappa, lambda, F234A L235A, DuoBody IgG4 PAA, ROR1 arm + CD3B219 arm; also called RR1B88 × CD3B219) heavy 1: not shown light 1: not shown heavy 2: EVQLVESGGGLVQPGGSLRLSCAASGFTFNTYAMNWVRQAPGKGLEWVARIRSKYNNYATYYAASVKGRFTISRDDSKNSLYLQMNSLKTEDTAVYYCARHGNFGNSYVSWFAYWGQGTLVTVSSASTKGPSVFPLAPCSRSTSESTAALGCLVKDYFPEPVTVSWNSGALTSGVHTFPAVLQSSGLYSLSSVVTVPSSSLGTKTYTCNVDHKPSNTKVDKRVESKYGPPCPPCPAPEAAGGPSVFLFPPKPKDTLMISRTPEVTCVVVDVSQEDPEVQFNWYVDGVEVHNAKTKPREEQFNSTYRVVSVLTVLHQDWLNGKEYKCKVSNKGLPSSIEKTISKAKGQPREPQVYTLPPSQEEMTKNQVSLTCLVKGFYPSDIAVEWESNGQPENNYKTTPPVLDSDGSFLLYSKLTVDKSRWQEGNVFSCSVMHEALHNHYTQKSLSLSLGK light 2: QTVVTQEPSLTVSPGGTVTLTCRSSTGAVTTSNYANWVQQKPGQAPRGLIGGTNKRAPGTPARFSGSLLGGKAALTLSGVQPEDEAEYYCALWYSNLWVFGGGTKLTVLGQPKAAPSVTLFPPSSEELQANKATLVCLISDFYPGAVTVAWKADSSPVKAGVETTTPSKQSNNKYAASSYLSLTPEQWKSHRSYSCQVTHEGSTVEKTVAPTECS		16.2
RCDB16 (bispecific antibody, human IgG4 S228P, kappa, lambda, F234A L235A, DuoBody IgG4 PAA, ROR1 arm + CD3B219 arm; also called RR1B84 × CD3B219) heavy 1: not shown light 1: not shown heavy 2: EVQLVESGGGLVQPGGSLRLSCAASGFTFNTYAMNWVRQAPGKGLEWVARIRSKYNNYATYYAASVKGRFTISRDDSKNSLYLQMNSLKTEDTAVYYCARHGNFGNSYVSWFAYWGQGTLVTVSSASTKGPSVFPLAPCSRSTSESTAALGCLVKDYFPEPVTVSWNSGALTSGVHTFPAVLQSSGLYSLSSVVTVPSSSLGTKTYTCNVDHKPSNTKVDKRVESKYGPPCPPCPAPEAAGGPSVFLFPPKPKDTLMISRTPEVTCVVVDVSQEDPEVQFNWYVDGVEVHNAKTKPREEQFNSTYRVVSVLTVLHQDWLNGKEYKCKVSNKGLPSSIEKTISKAKGQPREPQVYTLPPSQEEMTKNQVSLTCLVKGFYPSDIAVEWESNGQPENNYKTTPPVLDSDGSFLLYSKLTVDKSRWQEGNVFSCSVMHEALHNHYTQKSLSLSLGK light 2: QTVVTQEPSLTVSPGGTVTLTCRSSTGAVTTSNYANWVQQKPGQAPRGLIGGTNKRAPGTPARFSGSLLGGKAALTLSGVQPEDEAEYYCALWYSNLWVFGGGTKLTVLGQPKAAPSVTLFPPSSEELQANKATLVCLISDFYPGAVTVAWKADSSPVKAGVETTTPSKQSNNKYAASSYLSLTPEQWKSHRSYSCQVTHEGSTVEKTVAPTECS	2.91	10.4
RCDB14 (bispecific antibody, human IgG4 S228P, kappa, lambda, F234A L235A, DuoBody IgG4 PAA, ROR1 arm + CD3B219 arm; also called RR1B82 × CD3B219) heavy 1: not shown light 1: not shown heavy 2: EVQLVESGGGLVQPGGSLRLSCAASGFTFNTYAMNWVRQAPGKGLEWVARIRSKYNNYATYYAASVKGRFTISRDDSKNSLYLQMNSLKTEDTAVYYCARHGNFGNSYVSWFAYWGQGTLVTVSSASTKGPSVFPLAPCSRSTSESTAALGCLVKDYFPEPVTVSWNSGALTSGVHTFPAVLQSSGLYSLSSVVTVPSSSLGTKTYTCNVDHKPSNTKVDKRVESKYGPPCPPCPAPEAAGGPSVFLFPPKPKDTLMISRTPEVTCVVVDVSQEDPEVQFNWYVDGVEVHNAKTKPREEQFNSTYRVVSVLTVLHQDWLNGKEYKCKVSNKGLPSSIEKTISKAKGQPREPQVYTLPPSQEEMTKNQVSLTCLVKGFYPSDIAVEWESNGQPENNYKTTPPVLDSDGSFLLYSKLTVDKSRWQEGNVFSCSVMHEALHNHYTQKSLSLSLGK light 2: QTVVTQEPSLTVSPGGTVTLTCRSSTGAVTTSNYANWVQQKPGQAPRGLIGGTNKRAPGTPARFSGSLLGGKAALTLSGVQPEDEAEYYCALWYSNLWVFGGGTKLTVLGQPKAAPSVTLFPPSSEELQANKATLVCLISDFYPGAVTVAWKADSSPVKAGVETTTPSKQSNNKYAASSYLSLTPEQWKSHRSYSCQVTHEGSTVEKTVAPTECS		6.21
